Assay [1] concerns the target Methionine γ-lyase from Yarrowia lipolytica (yMGL) (Yarrowia lipolytica). Description: crystal structure.
For assay [2] the target is unchanged. The experiment in a line: SEC + other: dynamic light scattering.
The target in assay [3] is yMGL-ΔCTD (yMGL with the C-terminal residues 253-380 deleted) (Yarrowia lipolytica). Description: SEC + other: dynamic light scattering.

Broadly, the stoichiometry N is a count of units in the complex or per binding partner. With “Methionine γ-lyase from Yarrowia lipolytica (yMGL) (enzyme)”, the stoichiometry N was 2 in assay [1] and 4 in assay [2].

“yMGL-ΔCTD (yMGL with the C-terminal residues 253-380 deleted) (domain or fragment)”: the stoichiometry N in assay [3] was 6.
